We go through 5 substances from patent publication US6534051.

For assay [1], the target named is cell-surface protein expressed on various human cancers (e.g., HeLa and Col-1 cells), antigen of antibody B6.2 (human). In words: cell-based or functional assay.
Assay [2] deals with receptor of ecotropic murine leukemia virus (UniProt Q09143). Put plainly: cell-based or functional assay.
Chain of UniProt Q09143 (Q09143 whole entry): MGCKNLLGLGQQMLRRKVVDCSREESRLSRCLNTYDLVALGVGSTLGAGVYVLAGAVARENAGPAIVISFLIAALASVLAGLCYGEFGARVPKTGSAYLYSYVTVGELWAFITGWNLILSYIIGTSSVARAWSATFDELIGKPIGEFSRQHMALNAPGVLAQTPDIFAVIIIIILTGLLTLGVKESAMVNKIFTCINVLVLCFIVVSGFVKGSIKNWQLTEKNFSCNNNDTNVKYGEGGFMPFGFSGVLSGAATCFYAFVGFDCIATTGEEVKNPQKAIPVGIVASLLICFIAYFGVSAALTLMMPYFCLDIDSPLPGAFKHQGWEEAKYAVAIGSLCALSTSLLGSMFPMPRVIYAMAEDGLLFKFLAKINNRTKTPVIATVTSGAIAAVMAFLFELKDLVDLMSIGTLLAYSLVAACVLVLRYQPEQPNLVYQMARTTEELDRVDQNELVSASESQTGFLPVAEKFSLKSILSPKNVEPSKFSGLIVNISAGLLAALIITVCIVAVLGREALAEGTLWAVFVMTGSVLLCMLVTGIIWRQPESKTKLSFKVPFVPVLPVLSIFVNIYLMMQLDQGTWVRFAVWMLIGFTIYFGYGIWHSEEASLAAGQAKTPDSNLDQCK

Turning to “TC25 targeting envelope: B6.2 single chain antibody fused to carboxy terminal part of the SNV envelope (same amount of SNV envelope as pTC5) (scFv)”, in assay [1], the Titer (CFU/ml) on COL-1, particles with TC25 + wt-env was 55 CFU/ml; the Titer (CFU/ml) on HeLa, particles with TC25 + wt-env came out at 100 CFU/ml; the Titer (CFU/ml) on HeLa, particles with TC25 alone stood at 20 CFU/ml.
As to “SNV-MLV-chiD targeting envelope: almost complete SU peptide of ecotropic murine leukemia virus fused to carboxy terminal part of the SNV envelope (as in pTC5)”, the Virus titer (cfu/ml) on CHTG cells, particles with MLV-SNV-chiD + wt SNV in assay [2] is 1000 cfu/ml.
Regarding “TC24 targeting envelope: B6.2 single chain antibody fused to carboxy terminal part of the SNV envelope (same amount of SNV envelope as pTC4) (scFv)”, in assay [1], the Titer (CFU/ml) on COL-1, particles with TC24 + wt-env was found to be 115 CFU/ml; the Titer (CFU/ml) on HeLa, particles with TC24 + wt-env came to 250 CFU/ml; the Titer (CFU/ml) on HeLa, particles with TC24 alone amounted to 5 CFU/ml.
With “TC26 targeting envelope: B6.2 single chain antibody fused to the SNV envelope at codon 168 (167 in the legend of FIG. 6) (scFv)”, in assay [1], the Titer (CFU/ml) on COL-1, particles with TC26 + wt-env worked out at 45 CFU/ml; the Titer (CFU/ml) on HeLa, particles with TC26 + wt-env was determined as 90 CFU/ml; the Titer (CFU/ml) on HeLa, particles with TC26 alone turned out to be 10 CFU/ml.
As for “SNV-MLV-chiC targeting envelope: almost complete SU peptide of ecotropic murine leukemia virus fused to carboxy terminal part of the SNV envelope (as in pTC4)”, the Virus titer (cfu/ml) on CHTG cells, particles with MLV-SNV-chiC + wt SNV in assay [2] stood at 1000 cfu/ml.
